Our source for the Abs 630 (25 nM) and Abs 630 (100 nM) values is patent publication US20250376528A1.

The experiment has as its target human IL-10 receptor (hIL-10R α and β chains) on HEK-Blue IL-10 reporter cells (human) (UniProt Q13651). As to the kind of experiment: cell-based or functional assay.

Chain of human IL-10 receptor (hIL-10R α and β chains) on HEK-Blue IL-10 reporter cells (human) (Q13651 22-578, chain 1 of 2): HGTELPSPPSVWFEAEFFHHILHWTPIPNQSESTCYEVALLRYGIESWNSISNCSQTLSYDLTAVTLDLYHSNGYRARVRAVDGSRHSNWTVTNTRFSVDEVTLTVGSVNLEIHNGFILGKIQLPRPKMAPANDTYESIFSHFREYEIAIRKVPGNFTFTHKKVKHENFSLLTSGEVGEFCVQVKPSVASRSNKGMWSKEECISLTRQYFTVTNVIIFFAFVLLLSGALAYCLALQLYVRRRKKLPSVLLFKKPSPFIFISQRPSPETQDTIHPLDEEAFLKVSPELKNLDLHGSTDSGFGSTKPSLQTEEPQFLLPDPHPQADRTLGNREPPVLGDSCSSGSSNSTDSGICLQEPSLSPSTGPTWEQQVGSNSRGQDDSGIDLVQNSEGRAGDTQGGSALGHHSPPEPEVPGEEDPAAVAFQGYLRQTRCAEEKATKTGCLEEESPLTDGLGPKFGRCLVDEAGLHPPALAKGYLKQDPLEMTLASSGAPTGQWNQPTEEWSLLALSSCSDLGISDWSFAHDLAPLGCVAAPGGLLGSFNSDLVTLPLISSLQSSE
Chain of human IL-10 receptor (hIL-10R α and β chains) on HEK-Blue IL-10 reporter cells (human) (Q08334 20-325, chain 2 of 2, further chain): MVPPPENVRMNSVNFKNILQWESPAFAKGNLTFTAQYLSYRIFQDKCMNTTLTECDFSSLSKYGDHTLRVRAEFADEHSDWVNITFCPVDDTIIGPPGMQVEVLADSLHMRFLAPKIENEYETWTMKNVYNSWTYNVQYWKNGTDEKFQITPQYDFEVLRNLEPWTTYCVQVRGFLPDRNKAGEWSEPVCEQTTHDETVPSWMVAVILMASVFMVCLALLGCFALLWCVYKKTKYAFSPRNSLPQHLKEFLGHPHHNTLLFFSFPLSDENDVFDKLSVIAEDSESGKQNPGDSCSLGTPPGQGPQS

Regarding “Recombinant Animal-Free Human IL-10 (Shenandoah Biotechnology, Catalog No. 100-83AF) (from UniProt P22301 19-178) (ligand)”, the Abs 630 (25 nM) is 2.08 Abs 630 and the Abs 630 (100 nM) came to 2.04 Abs 630.
